In the supplement of paper PMC7877785:
± gives the uncertainty stated by the source.

Test: self-splicing fitness, log relative to wild type (ln ratio); higher = more splicing; Tetrahymena group I intron in knt gene, E. coli kanamycin selection, DiMSum; sequences stand for … in CUCUCU…GGAGGGAAAAGUUAUCAGGCAUGCACCUGGUAGCUAGUCUUUAAACCAAUAGAUUGCAUCGGUUUAAAAGGCAAGACCGUCAAAUUGCGGGAAAGGGGUCAACAGCCGUUCAGUACCAAGUCUCAGGGGAAACUUUGAGAUGGCCUUGCAAAGGGUAUGGUAAUAAGCUGACGGACAUGGUCCUAACCACGCAGCCAAGUCCUAAGUCAACAGAUCUUCUGUUGAUAUGGAUGCAGUUCACAGACUAAAUGUCGGUCGGGGAAGAUGUAUUCUUCUCAUAAGAUAUAGUCGGACCUCUCCUUAAUGGGAGCUAGCGGAUGAAGUGAUGCAACACUGGAGCCGCUGGGAACUAAUUUGUAUGCGAAAGUAUAUUGAUUAGUUUUGGAGUACUCGUGGUCG
How it was run: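 DiMSum derived fitness as the error-weighted combination of fold changes across replicates, kanamycin versus no kanamycin, normalised to wild type. E. coli BL21(DE3) held the library, which randomised all eight P1ex-region intron nucleotides within the knt kanamycin-resistance gene on pET-22b(+). Six replicate transformations grew overnight at 37°C or 30°C on LB agar with or without 25 μg/mL kanamycin, also containing 100 μg/mL carbenicillin, 50 μM IPTG and 0.2% rhamnose, and pooled colonies were amplicon-sequenced on an Illumina HiSeq 2500.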

Row | Sequence | self-splicing fitness (ln) (30 °C) | self-splicing fitness (ln) (37 °C)
1 | CGUGAGCAAUAUUACGCGUU | -3.11 ± 0.28 | -2.72 ± 0.2
2 | CGUGAGCAAUAUUACGGACC | -2.51 ± 0.49 | 
3 | CGUGAGCAAUAUUACGGCAG | -0.858 ± 0.11 | -0.441 ± 0.14
4 | CGUGAGCAAUAUUACGGCGU | -2.44 ± 0.18 | -1.32 ± 0.17
5 | CGUGAGCAAUAUUACGGGCA | -1.6 ± 0.12 | -1.63 ± 0.16
6 | CGUGAGCAAUAUUACGGGUC | -4 ± 0.24 | -2.2 ± 0.19
7 | CGUGAGCAAUAUUACGUAAC | -3.13 ± 0.39 | -2.78 ± 0.43
8 | CGUGAGCAAUAUUACGUCCA | -2.37 ± 0.26 | -2.38 ± 0.34
9 | CGUGAGCAAUAUUACGUCUU | -2.26 ± 0.27 | 
10 | CGUGAGCAAUAUUACGUGUA | -3.18 ± 0.22 | -3.91 ± 0.31
11 | CGUGAGCAAUAUUACGUUCU | -2.74 ± 0.28 | -2.2 ± 0.27
12 | CGUGAGCAAUAUUACGUUUC | -3.19 ± 0.23 | -2.23 ± 0.19
13 | CGUUAGCAAUAUUACGAACG | -2.85 ± 0.3 | -2.62 ± 0.38
14 | CGUUAGCAAUAUUACGACAA | -1.99 ± 0.17 | -1.15 ± 0.17
15 | CGUUAGCAAUAUUACGAGGA | -2.48 ± 0.27 | -2.13 ± 0.27
16 | CGUUAGCAAUAUUACGAUAC |  | -2.64 ± 0.44
17 | CGUUAGCAAUAUUACGAUGC | -0.888 ± 0.21 | -1.63 ± 0.31
18 | CGUUAGCAAUAUUACGAUUA | -2.16 ± 0.26 | -1.14 ± 0.22
19 | CGUUAGCAAUAUUACGCCUU | -3.33 ± 0.43 | -2.18 ± 0.19
20 | CGUUAGCAAUAUUACGCUGG | -1.45 ± 0.28 | -1.83 ± 0.31
21 | CGUUAGCAAUAUUACGGCGA | -1.6 ± 0.11 | -1.61 ± 0.11
22 | CGUUAGCAAUAUUACGGGCC | -1.91 ± 0.18 | -1.75 ± 0.24
23 | CGUUAGCAAUAUUACGGUAG | -0.514 ± 0.097 | -0.104 ± 0.11
24 | CGUUAGCAAUAUUACGUAUU | -3.02 ± 0.18 | -2.64 ± 0.19
25 | CGUUAGCAAUAUUACGUGAU | -3.16 ± 0.24 | -2.45 ± 0.2

Row | Sequence | self-splicing fitness (ln) (30 °C) | self-splicing fitness (ln) (37 °C)
26 | CGUUAGCAAUAUUACGUGCG | -3.7 ± 0.14 | -2.71 ± 0.15
27 | CUAAAGCAAUAUUACGAGAA | -2.99 ± 0.19 | -3.25 ± 0.33
28 | CUAAAGCAAUAUUACGAUAG | 0.0858 ± 0.072 | 0.313 ± 0.085
29 | CUAAAGCAAUAUUACGCACU | -3.41 ± 0.2 | -2.34 ± 0.32
30 | CUAAAGCAAUAUUACGCAUU | -4.21 ± 0.21 | -1.51 ± 0.14
31 | CUAAAGCAAUAUUACGCUAU | -4.21 ± 0.31 | -2.75 ± 0.3
32 | CUAAAGCAAUAUUACGCUCG | -0.715 ± 0.12 | -0.626 ± 0.15
33 | CUAAAGCAAUAUUACGCUGG | -3.74 ± 0.22 | -2.11 ± 0.25
34 | CUAAAGCAAUAUUACGCUGU | -3.72 ± 0.29 | -2.39 ± 0.21
35 | CUAAAGCAAUAUUACGGGGC | -2.86 ± 0.36 | -2.78 ± 0.28
36 | CUAAAGCAAUAUUACGGUAC |  | -2.35 ± 0.25
37 | CUAAAGCAAUAUUACGUAAG | -0.149 ± 0.07 | -0.575 ± 0.085
38 | CUAAAGCAAUAUUACGUAAU | -4.33 ± 0.29 | -2.54 ± 0.23
39 | CUAAAGCAAUAUUACGUAGA | -3.64 ± 0.19 | -4.04 ± 0.46
40 | CUAAAGCAAUAUUACGUAGG | -1.15 ± 0.088 | -1.2 ± 0.11
41 | CUAAAGCAAUAUUACGUAUG | -0.125 ± 0.059 | 0.0627 ± 0.081
42 | CUAAAGCAAUAUUACGUUGA | -4.09 ± 0.23 | -2.6 ± 0.29
43 | CUACAGCAAUAUUACGAGCG | -0.282 ± 0.076 | -0.442 ± 0.1
44 | CUACAGCAAUAUUACGAGCU | -3.01 ± 0.21 | -2.19 ± 0.19
45 | CUACAGCAAUAUUACGCAAC | -3.66 ± 0.36 | -3.03 ± 0.29
46 | CUACAGCAAUAUUACGCAAG | -2.61 ± 0.15 | -1.45 ± 0.19
47 | CUACAGCAAUAUUACGCACU | -3.52 ± 0.21 | -3.03 ± 0.4
48 | CUACAGCAAUAUUACGCAGG | -2.62 ± 0.13 | -3.06 ± 0.24
49 | CUACAGCAAUAUUACGCCGA | -2.29 ± 0.18 | -3.15 ± 0.43
